# Data: IntAct's records for PubMed 19940251
# B1: DNA replication regulator protein HobA (Helicobacter pylori), O25828 (parent)
# chain: MKNFYDWIKEFVRDQGEFIAQQSGWLELERSSYAKLIAQTISHVLNGGSLLVSADSSRHWFLNYILSNLNPKDLKERPLLSVIDFNASSFYPKNDANLSLATIEMTYQNPMFWHVGKIENEGLKTILLSKIPSFLWLFEELKEDCLLLKEHDSLLDYKLLQLFKLFENALFSVLYNKVTL
# partner: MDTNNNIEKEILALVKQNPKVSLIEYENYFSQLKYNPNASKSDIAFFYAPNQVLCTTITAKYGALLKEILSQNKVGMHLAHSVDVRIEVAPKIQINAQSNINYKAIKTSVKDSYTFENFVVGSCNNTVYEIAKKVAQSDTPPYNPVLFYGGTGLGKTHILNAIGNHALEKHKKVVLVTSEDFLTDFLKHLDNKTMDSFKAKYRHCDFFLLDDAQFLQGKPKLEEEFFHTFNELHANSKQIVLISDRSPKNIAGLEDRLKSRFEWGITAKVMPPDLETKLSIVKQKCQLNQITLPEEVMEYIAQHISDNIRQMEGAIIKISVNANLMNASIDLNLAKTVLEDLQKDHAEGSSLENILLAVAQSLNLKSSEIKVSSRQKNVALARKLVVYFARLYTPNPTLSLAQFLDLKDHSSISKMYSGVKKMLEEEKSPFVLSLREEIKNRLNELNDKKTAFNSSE
# Variants of: B1
# Conditions: with dnaa_helpy dnaA
row,Variant,effect of a mutation on the interaction
1,I41T,disrupting interaction
2,I83M,decreasing interaction
3,L128P,disrupting interaction
4,L174P,disrupting interaction
5,L141P,disrupting interaction
6,S99P,decreasing interaction
7,S67P,disrupting interaction
8,L146S,disrupting interaction
9,A169V,disrupting interaction
10,I118T,disrupting interaction
11,L162P,disrupting interaction
12,M111V,decreasing interaction
13,E119G,disrupting interaction
14,D55G,disrupting interaction
15,R77C,decreasing interaction
16,Y107H,decreasing interaction
17,V82A,decreasing interaction
18,F61C,disrupting interaction
19,H43R,disrupting interaction
20,L45P,disrupting interaction
21,V44A,decreasing interaction
22,L51F,decreasing interaction
23,F112S,disrupting interaction
24,V115D,disrupting interaction
25,F138S,disrupting interaction strength
26,F138L,disrupting interaction strength
27,L170P,disrupting interaction

# Variants of: B1
# Conditions: with dnaa_helpy dnaA
# Remark: another data set of the same source
row,Variant,effect of a mutation on the interaction
1,L80R,disrupting interaction
2,E76A;R77A;P78A,disrupting interaction
3,Y175E,disrupting interaction

# Variants of: B1
# Conditions: with dnaa_helpy dnaA
# Remark: another data set of the same source
row,Variant,effect of a mutation on the interaction
1,L137P,decreasing interaction
2,S67P,decreasing interaction
3,L127P,disrupting interaction
4,L69P,disrupting interaction
5,S88P,disrupting interaction
6,H43R,decreasing interaction
7,L51F,disrupting interaction strength
8,L51S,disrupting interaction strength
9,F166S,decreasing interaction
10,F138S,decreasing interaction
